Experimental data from the DeepSol protein solubility set.

Experiment: soluble on expression in E. coli; label from the status in PepcDB or PDB records

MGSDKIHHHHHHMFDRSRKGEHALLIQTHSGGPAEEDVLEEFAELAKSAGATVAATLTARIDKPSPSTLIGSGKLEEVKAAAEATGADLVLVNHTLSPGQERNLERYLERRVIDRTGLILDIFAQRARSHEGKLQVELAQLRHMATRLVRGWTHLERQRGGAIGLRGPGETQLETDRRLLQKRVEQLQKRLEKVEVQRTQMRRARMRSELPRIALVGYTNAGKSTLFNALTGADAYAADQLFATLDPTVRRIALPGGSAVLADTVGFVRDLPHELVAAFRSTLSEARDADLLLHIVDAADPLREERIHQVDEVLQAVGAGDLPQLLVFNKIDKIEGAEVRHDAQDGIPDQARRERVWISARDGRGLEELQRALGHRLDLRHITGSLRLPASAGRLRSKLHQLEVIRSEQVDEEGWLLEVDLPYVEAERLAAGEDGAPLRALLPDRREDWET
soluble on expression in E. coli: not soluble

MAYDSRLPEQRDPATDPSANYDYQGDSVNRPDLVSALEQRVDGDVRFDTYTRELFATDASAYEQLPIGVVSPVSTEDVVAVMEYCAAEDIPVLPRGGGTSLAGQAVNEAVVLDFKRYMDE
soluble on expression in E. coli: not soluble

MGIGSKILENNIQKSISLGFYHSHSELRKSFYEFFKSKNHEILRSSSVIPDENDGTLLFTNAGMNQFKPLILSSTESRRVANIQKCIRAGGKHNDLDDVGKDLHHQTFFEMMGNWSFNDAFSKEEACRYAWEYLVEILGINADRLYVSYFGGIEKLGLPEDRECREIWKRIGVSSNRILPFVAENFWEMGAAGPCGPCTEIHYDRIGGRDASRLVNIDDSVVEIWNIVFMSSVRDSCGQIRHLGKNHIDTGMGFERLLSVVQNKTSNFDTDVFTPILEKTSELAKKQYTGSLDSRQDATFRLVADHIRAATVAISDGAVPDGTGCGFIVRKMMRRAFLQGISKLGIERYAMSELVPVVASTMKEVYPEIHDTSTHIRKIFNDEEAQFWKTVDKAKKMFDSVAAESKSPIISGRKAFNLFETHGLPLAVTVELARNIGREVDETEFERCRLEAQKVSQKASQFKLPISADDFPSHSDKEKYSYVFRNGKYEFPQVKTRILQVYKDQQKAESLEANDRGFLVLEECQFYGEQGGQTSDTGHLLIDGREVFEVENAKKIAGGAVTVLFGRALLPIRRDLRVEQKLDETRREGVMRAHSATHLLNWALQKLGVGSGQKGSSVDCDRFRFDYSTGDEDLSKEQRTELLIKCEMKMREFIQNGGFTEIIETSLEEAKKIENLQSDVKEDRIGGASVRVVALGSGADVPVECCSGTHIHDVRVIDDVAIMSDKSMGQRLRRIIVLTGKEAAACRNYTKSIYEDLRSTDPKERSKTGKNIDWKRVPIADQARISILLKQKK
soluble on expression in E. coli: not soluble

MAKETVCVTGANGFIGSWIIRTLIEKGYTKIHASIYPGSDPTHLLQLPGSDSKIKIFEADLLDSDAISRAIDGCAGVFHVASPCTLDPPVDPEKELVEPAVKGTINVLEAAKRFNVRRVVITSSISALVPNPNWPEKVPVDESSWSDLDFCKSRQKWYPISKTLAEKAAWEFSEKHGTNIVTIHPSTCLGPLLQPNLNASCAVLLQLLQGSTETQEHHWLGVVHVKDVAKGHVMLFETPDASGRFLCTNGIYQFSEFAALVSKLFPEFAVHKFDKETQPGLTSCNDAAKRLIELGLVFTAVEDAVKETVQSLRDKGFL
soluble on expression in E. coli: soluble

MSLAEKICITEIDKLSQKLLRIETELNANIPTTLWISDLHGEGDRFKSILRGRFGMLYQTCKEGLPATFTPEKIQYLAKIVRKKNYFADSQQQMDRQDVILCFVQILKYKLTNSTNRNREIFLPEFRETIGRLLAGLPVPDPIFEESIISDRLIFHLSYAIRQVLLDRIQVLGDVFDRGSQPDKIIRILSSPAYKEMVDYVFGNHDILWMGAAAGTPSLVAETLRITCRYDHFRLLNRLRFDTSRLAEFAERTYEIKKATGKFKAKTDRGRAMEKALTVIQFKLEEKLINDFPHYGMEKRLWLERLAEMLKTGATEELNDSDFPTIDLENPSKLSKEESEIINDLIEQFRSNKYLKRLLKFFFEEGSTYHISNNFLNIHALVPSTKEGEFEEFMGHKGKDLLDYIQKVIRRTGQNYLYNREQSADDLALFFYLWCGPKSPFFGKHAMKTFERYFLLDKERHAEHSLYWQKNMQSDAFKEKMQEEFGIQRVIFGHTPVNYMQGNKMASEDGVAINVDGGFAAAYYNRGHALVHTPHQLYGIILPTPDELIKAAVRLEPAPLDIEFIDEFPQPLKIKNTIAGKLLQQERDLIMGKIQSYNSEGHHHHHH
soluble on expression in E. coli: soluble

GTKQKMRTVFSQAQLCALKDRFQKQKYLSLQQMQELSSILNLSYKQVKTWFQNQRMKCKRWQ
soluble on expression in E. coli: soluble

MGSDKIHHHHHHMKKIVVLGGGPGGLVAAYNLARLLRGKAEITLIDKTGYHLFPPSLLWVMVGQREPEDIMRPLSKLEKHGIKVVTASVESIDPDNNKVATSGGEFEYDYLVVSLGSTPRPELMKADDTVCSPWTVEGALDCRRKLAGFKSGRIIVGAWSWPYKCPPAPFETAFLVKYLLEQRGGDAQVTVVHFWKKPMEPFGPTMAEAFQSFLDMYGVGFKGGVEPMEARGGRLVASSGEEIEYDLAVFAPPHEPPKPVAESPLGDESLGGYMRVDKRTLRSPRYGNVFGVGDIIAPSLGLGMAGIFAHFQAEYVASQIADEILGTYMGEHYNMSGVCVMDLGYAGAAVYCDFSKKVMGEAEYPDCVILGGMRAFRPLKYAFERYWLEKWFT
soluble on expression in E. coli: not soluble

MVLFVDFLLEWLEMMRTRVRETTYASYNSGIRQSIIPYFMDKKLTLTDIEENPKYLQDFYQHELSKGLSPNSVLRRHANIRKALQHAFHLGLIKSNPADRIERPKKQLEHHHHHH
soluble on expression in E. coli: not soluble

SNAMSARKLFYLGPQGTFTHQAAVNAAQELARFEPQGFDLMPMDDVPQILDAAQHGDGWGIVAWENNVEGYVVPNLDALIDAKDLVGFARVGVNVEFDAYVAQGADPAEARIATAHPHGLAQCKRFIAEHRLSTQPATSNAAACRDLIPGEIAFGPAICGELYDITRIGTAIQDYQGAATDFLVLSPRAEVARLLAKPRAEANVEYESVLTLIPLVTGPGVLANLLDVFRDAGLNMTSFISRPIKGRTGTYSFIVTLDAAPWEERFRDALVEIAEHGDWAKTLAVYPRREHPNPPVTSWMLPQGGVRLDDSHLPDDWQNDETVRRELMW
soluble on expression in E. coli: soluble

MGSDKIHHHHHHMYSSAHSGSNESNLIAFPMAATSKTALLVQVDPFQSEVWSTALASQSITVIKEGADVDLSNMLGQMASAGLTLPDLIIVDMATEGMNPFAFCRFCREQHPSVKVLLTNSTQTQIAESEQRWAMSQGAQDLLPAFQTDSLLTDLLTALGRTSGVLGLPNLDQQALIQILPKLLEPKAEATETVALPAPSVAEPSVPPAPKAQRTYRGRPY
soluble on expression in E. coli: not soluble

MSSSHLAERHAFSDLSLLSEALAQSVTVTLRNAIERYGKASLVVPGGHTPVVYLPRLAQMDLPWQQVFITLSDERWVEPTSEQSNERLVREHFLQHMQQQPHFIALKTGHIHPDQAITDIDARLAELPQPFSLVILGLGEDGHIASLFPGMALNPDTTSLCQTATPPAAPSLRISLSLHALINSDRIILVITGKEKRQLIDRLIESPDQNIPFVRLMQFKPVELFETD
soluble on expression in E. coli: not soluble

RGNLGQSQKVLIEFVSANPTGPLHVGHGRGAAFGATLGNVLKAAGYDVTLEYYVNDAGRQMNILAVSVWLRYLELAGEPIVFPANGYKGQYVYEIAQEIWSEQGNQFVHPWISVVENLPADEPEGGDKETYIDAIIARAQSLLGKDGFANFHQHALKTVLDDIKDDLQAFGVRFDSWFSEQSLFEDGSIEKGIQALKDRGHTYEREGALWFRATDFGDEKDRVLVRANGQTTYFASDVAYHWNKYDRGFDRVIDIFGADHHGYVTRIKTAVKALGHDESALDVILVQFAILYRGGDRVQMSTRSGSFVTLRELREEVGNDAARYFYVARKPEQHMDFDLDLAKSESSDNPVYYIQYAHARICSVLRQLKERGLKWDKDMGL
soluble on expression in E. coli: not soluble

MGHFSEKSGSLILRRSLFIVDAIYLKKFRKKTGLKQKEFALSSGLTLKSLRNYEQGKRKLTLEKYQEIKSHFGYLVENDSSRLQVMIDYVRITLKDVRDLEFFCRNFLHCAFKEFQPFESKLMNYNHLWKRGDIWIFDFADKHETGNFQITVQLSGRGCRQLELLMETEKFTWHDWLSYLRNSYRDDMNVTRFDIAIDELYLGKDRENEQFHLSDMISKYYRHELDFESLRTWNYIGGGSLNFSDMEEIEQNRQGISLYFGSRQSEMYFNFYEKRYEIAKQEGITVEEALEIFELWNRYEIRLSQSKANAAVDEFISGVPIGEISRGLIVSKIDVYDGKNEYGSFQADRKWQLMFGGVEPLKFVTKPEAYSIERTLRWLSDSVSPSLAMIREYDMIVDGDYLQTILNSGEVNERGEKILDSIKASLGIL
soluble on expression in E. coli: not soluble

MEASEEVTMVNKGDDGKSGIRYYTTIEELSRAINAGLSLQDRRMSEEEAMEAAEHIINFFGYNDRVIDNMLEPEDRDSFYTMEDIGILQTEREETTLFDGREWRIHYWILNINKIMELANMQVDYKKKITNDEYKIYDEIPDDYWKVVE
soluble on expression in E. coli: not soluble

MLAQRGTFAECGAEVLAVAMSPGRRHITKPVCEITFGLRESNVLTSTMVLNAGAGVPHDAPASGGTLFGLTDKEVEQMSNFKLLVIHLGGVKNHLIYKARLILRNVNKPCIIICESPVDCEDFAKIGVKTSKVMPSEEDVKTEGHIVDIVSGVIRGETISQEKLDEIIRKVKLALGDALEHHHHHH
soluble on expression in E. coli: soluble

MADLDDIKDGKDFHTDKPQTNTLFALKGCGALDWGMQSRLARIFNPKTRKTVMLAFDHGYFQGPTTGLERIDINIAPLFEYADVLMCTRGILRSVVPPAINKPVVLRASGANSILTELSNEAVAVAMDDAVRLNSCAAAAQVYIGSEHEHQSIKNIIQLIDAGLRVGMPIMAVTGVGKDMARDQRYFSLATRIAAEMGAQIIKTYYVDKGFERIAAGCPVPIVIAGGKKLPEREALEMCYQAIDQGASGVDMGRNIFQSEDPVAMIKAVHAVVHHNETAERAYELFLSEKS
soluble on expression in E. coli: not soluble

MAHHHHHHMFRFCGRRLVARTLPLLADYQELPEAFEFMEHKVADKDIHSAYENMETLRLTVTRQDEFLFKETPVKCVTIVGVNGECGVYPGHAYEITQLTPAPLTVEMPDGTVKKFFTSGGFAHINNEGSCDINCVECIPLTELDVDAAEKALAQQQSALNSAHDDKARAVIEIRIGVLESVIQSLKHA
soluble on expression in E. coli: not soluble

MGSDKIHHHHHHMGNYQHPGIYVQEIAIAPNIEPVAACLPLFIGHTEKSQDANGHPLPLGKRYSVSSLAEYEEHFGKGAPETLRVLLDGKGNIVNAHSYSPFYLYAAVHQYFANGGGQCEILSVGPYSRAPDASALKAAIRALPLNAAFTLVAIPDAVSLAELPQLQRKLLQYCAQQDYCLAILDVPYCNDQTREMTVNTFRHDIGQRGLQHGAAFMPWLETAAAGISGYVDLEIKYTPGVATAWNDFHKATKLQSHLLHKQLEASPAIRFNRMLPPSGSIMALFEANARKRNIWTTPNHTPIKEIISLSATIDNIIQESLNIHPTGKSINAIRRFDNALLMWGGHTLASNDSEWRYIAHLLTRGFVQASLRRFLDQQTFEKNDEATWSLVGHQCQDFLHTLWREGALVGDKPEQAFYVRIGLNQTMSTQDIAAGRIIVHVGIALLRPAEFIILKLHKVISAPDLKPAITRPGKPVNRVKIRAKTSPINVVIRQRQQPSPPSKPLPSEPVS
soluble on expression in E. coli: not soluble
